Changes are numbered by the printed parent chain. Names may count otherwise.
Experiments:
UL37C (571-1123) = molecular target: T1, UL37C (571-1123) (Human herpesvirus 1, UniProt P10221); assay: Cysteine labeling with electrophile and tandem mass spectrometry; assay type: biochemical, HSV-1; conditions: for C819 labeled by CNM: 45 minutes
T1 construct: bacterial purified UL37 (571-1123) was treated with N-methylacetamide; His; made in house; host or cells: E. coli BL21(DE3)
Procedure: […] Samples were then blocked with Iodoacetamide (Sigma) (50 mM) at room temperature for 1 h and subjected to Mass Spectrometry analysis (Poochon Scientific).

RIG-I [1] = assay: Two-dimensional gel electrophoresis of RIG-I deamidation in cells; assay type: cell-based, human; conditions: 293T/RIG-I cells transfected with UL37, DON 10 μM
Procedure: Cells (1×10^6) were lysed in 150 μl rehydration buffer (8 M Urea, 2% CHAPS, 0.5% IPG Buffer, 0.002% bromophenol blue) by three pulses of sonication and whole cell lysates were centrifuged at 20,000 g for 15 min. Supernatants were loaded to IEF strips for focusing with a program comprising: 20 V, 10 h (rehydration); 100 V, 1 h; 500 V, 1 h; 1000 V, 1 h; 2000 V, 1 h; 4000 V, 1 h; 8000 V, 4 h. After IEF, strips were incubated with SDS equilibration buffer (50 mM Tris-HCl [pH8.8], 6 M urea, 30% glycerol, 2% SDS, 0.001% Bromophenol Blue) containing 10 mg/ml DTT for 15 min and then SDS equilibration buffer containing 2-iodoacetamide for 15 min. Strips were washed with SDS-PAGE buffer, resolved by SDS-PAGE, and analyzed by immunoblotting.

PRDIII promoter = assay: Dual-luciferase reporter assay (PRDIII, SeV infection); assay type: cell-based, human; conditions: 293T cells, SeV 100 HAU/ml
Procedure: HEK293T cells, seeded in 24-well plates (˜50% cell density), were transfected with IFN-β, PRDIII (ISRE) or NF-κB reporter plasmid cocktail (50 ng of luciferase reporter plasmid and 5 ng of pRL Renilla luciferase control vector) and expression plasmid (empty plasmid, one or multiple plasmids depending on the experiment) by calcium phosphate precipitation. Cells were infected with SeV (100 HA/ml), HSV-1 for 16 h, transfected with Poly [I:C] for 16 h or directly harvested 30-36 h post transfection. Whole cell lysates were used to determine the activity of firefly luciferase and renilla luciferase by a microplate reader (FLUOstar Omega).

RIG-I [2] = assay: In vitro ATPase activity assay; assay type: biochemical, human; conditions: purified RIG-I proteins; for ATPase activity kcat: at physiological ATP concentrations; for ability to hydrolyze ATP: with or without 5′ppp-RNA
Procedure: (§1) Purified RIG-I or RIG-I mutants were incubated with 5′-ppp-dsRNA (Invivogen) at 37° C. for 20 min in ATPase reaction buffer (50 mM Tris-HCl, pH 7.5, 2.5 mM MgCl2, and ATP. Released phosphates were measured using a PiColorLock™ phosphate detection reagent (Innova Biosciences). For reactions with varying concentrations of ATP, the concentrations of RIG-I proteins and RNA were 20 nM and 80 nM, respectively. For reactions with varying concentrations of the RNA, the concentrations of RIG-I proteins and ATP were 20 nM and 500 μM, respectively.
as §1, with “ATP).” for “ATP.”

HSV-1 = HSV-1 plaque assay in HEK293 cells stably expressing RIG-I wild-type or mutants; assay type: cell-based; conditions: HEK293 stable cells, HSV-1 MOI=0.5
[3] = test system: 5′-triphosphate 19mer dsRNA; assay: RNA electrophoresis mobility shift assay (EMSA); assay type: binding; conditions: 32P-labeled 5′-triphosphate 19mer dsRNA
Procedure: RNA EMSA was performed as previously described (Takahasi et al., 2008). 5′-ppp-dsRNA and control dsRNA were purchased from Invivogen and bottom strands were labeled with γ-[P^32]ATP by T4 polynucleotide kinase (NEB). Purified RIG-I and RIG-I mutants were incubated with dsRNA at room temperature for 15 min. Binding buffer contains 20 mM Tris-HCl (pH=8.0), 1.5 mM MgCl2 and 1.5 mM DTT. Unlabeled ppp-dsRNA was used as competitor at 500-fold in excess. The reaction mixtures were run on 5% native polyacrylamide gels at a constant voltage of 200 V. Gels were dried and subjected to phosphorimaging.

O=C(CCl)NCO [CNM, 2-Chloro-N-(hydroxymethyl) acetamide]
C819 labeled by CNM (UL37C (571-1123); CNM 1 μM): 38.3% | C819 labeled by CNM (UL37C (571-1123); CNM 10 μM): 42.5% | C850 labeled by CNM (UL37C (571-1123); CNM 1 and 10 μM): < 10%

[N-]=[N+]=CC(=O)CC[C@H](N)C(=O)O [DON, 6-diazo-5-oxo-L-norleucine, reference compound]
UL37-induced RIG-I deamidation in cells (RIG-I [1]): inhibited RIG-I deamidation

B1: C850S (protein)
chain: MADRGLPSEAPVVTTSPAGPPSDGPMQRLLASLAGLRQPPTPTAETANGADDPAFLATAKLRAAMAAFLLSGTAIAPADARDCWRPLLEHLCALHRAHGLPETALLAENLPGLLVHRLVVALPEAPDQAFREMEVIKDTILAVTGSDTSHALDSAGLRTAAALGPVRVRQCAVEWIDRWQTVTKSCLAMSPRTSIEALGETSLKMAPVPLGQPSANLTTPAYSLLFPAPFVQEGLRFLALVSNRVTLFSAHLQRIDDATLTPLTRALFTLALVDEYLTTPERGAVVPPPLLAQFQHTVREIDPAIMIPPLEANKMVRSREEVRVSTALSRVSPRSACAPPGTLMARVRTDVAVFDPDVPFLSSSALAVFQPAVSSLLQLGEQPSAGAQQRLLALLQQTWTLIQNTNSPSVVINTLIDAGFTPSHCTHYLSALEGFLAAGVPARTPTGHGLGEVQQLFGCIALAGSNVFGLAREYGYYANYVKTFRRVQGASEHTHGRLCEAVGLSGGVLSQTLARIMGPAVPTEHLASLRRALVGEFETAERRFSSGQPSLLRETALIWIDVYGQTHWDITPTTPATPLSALLPVGQPSHAPSVHLAAATQIRFPALEGIHPNVLADPGFVPYVLALVVGDALRATCSAAYLPRPVEFALRVLAWARDFGLGYLPTVEGHRTKLGALITLLEPAARGGLGPTMQMADNIEQLLRELYVISRGAVEQLRPLVQLQPPPPPEVGTSLLLISMYALAARGVLQDLAERADPLIRQLEDAIVLLRLHMRTLSAFFECRFESDGRRLYAVVGDTPDRLGPWPPEAMGDAVSQYCSMYHDAKRALVASLASLRSVITETTAHLGVSDELAAQVSHEDNVLAVVRREIHGFLSVVSGIHARASKLLSGDQVPGFCFMGQFLARWRRLSACYQAARAAAGPEPVAEFVQELHDTWKGLQTERAVVVAPLVSSADQRAAAIREVMAHAPEDAPPQSPAADRVVLTSRRDLGAWGDYSLGPLGQTTAVPDSVDLSRQGLAVTLSMDWLLMNELLRVTDGVFRASAFRPLAGPESPRDLEVRDAGNSLPAPMPMDAQKPEAYGHGPRQADREGAPHSNTPVEDDEMIPEDTVAPPTDLPLTSYQ
blockade of SeV-induced PRDIII promoter activation (PRDIII promoter): greatly impaired blockade of PRDIII induction by SeV

B2: RIG-I-WT: wild-type RIG-I polypeptide, SEQ ID NO. 3 (protein, listed as Homo sapiens)
chain: MTTEQRRSLQAFQDYIRKTLDPTYILSYMAPWFREEEVQYIQAEKNNKGPMEAATLFLKFLLELQEEGWFRGFLDALDHAGYSGLYEAIESWDFKKIEKLEEYRLLLKRLQPEFKTRIIPTDIISDLSECLINQECEEILQICSTKGMMAGAEKLVECLLRSDKENWPKTLKLALEKERNKFSELWIVEKGIKDVETEDLEDKMETSDIQIFYQEDPECQNLSENSCPPSEVSDTNLYSPFKPRNYQLELALPAMKGKNTIICAPTGCGKTFVSLLICEHHLKKFPQGQKGKVVFFANQIPVYEQQKSVFSKYFERHGYRVTGISGATAENVPVEQIVENNDIIILTPQILVNNLKKGTIPSLSIFTLMIFDECHNTSKQHPYNMIMFNYLDQKLGGSSGPLPQVIGLTASVGVGDAKNTDEALDYICKLCASLDASVIATVKHNLEELEQVVYKPQKFFRKVESRISDKFKYIIAQLMRDTESLAKRICKDLENLSQIQNREFGTQKYEQWIVTVQKACMVFQMPDKDEESRICKALFLYTSHLRKYNDALIISEHARMKDALDYLKDFFSNVRAAGFEEIEQDLTQRFEEKLQELESVSRDPSNENPKLEDLCFILQEEYHLNPETITILFVKTRALVDALKNWIEGNPKLSFLKPGILTGRGKTNQNTGMTLPAQKCILDAFKASGDHNILIATSVADEGIDIAQCNLVILYEYVGNVIKMIQTRGRGRARGSKCFLLTSNAGVIEKEQINMYKEKMMNDSILRLQTWDEAVFREKILHIQTHEKFIRDSQEKPKPVPDKENKKLLCRKCKALACYTADVRVIEECHYTVLGDAFKECFVSRPHPKPKQFSSFEKRAKIFCARQNCSHDWGIHVKYKTFEIPVIKIESFVVEDIATGVQTLYSKWKDFHFEKIPFDPAEMSK
ATPase activity kcat (RIG-I [2]): 944 s⁻¹ | reduction of HSV-1 replication / titer (HSV-1): ~50%

B3: RIG-I-DD (protein)
chain: B2 chain with N495D, N549D
modifications: left off: small tags and cut ends
ATPase activity kcat (RIG-I [2]): 32.6 s⁻¹ | ability to hydrolyze ATP (RIG-I [2]): completely lost its ability to hydrolyze ATP | reduction of HSV-1 replication / titer (HSV-1): marginal effect | RNA-binding (RIG-I:RNA complex formation) [3]: significantly impaired in forming the fast migrating RIG-I:RNA complex

B4: RIG-I-N549D (protein, UniProt O95786 1-925, looked up, variant N549D)
Antiviral innate immune …: B2 chain with N549D, E580D
ability to hydrolyze ATP (RIG-I [2]): basal or no ATPase activity

B5: RIG-I-N495D (protein, UniProt O95786 1-925, looked up, variant N495D)
Antiviral innate immune …: B2 chain with N495D, E580D
ability to hydrolyze ATP (RIG-I [2]): basal or no ATPase activity | RNA-binding (RIG-I:RNA complex formation) [3]: comparable RNA-binding affinity to RIG-I-WT

From patent US10596234B2, “Compositions and methods to inhibit viral replication” (priority 2016, dated 2020)
